Experimental data taken from the nanobody polyreactivity screen of Harvey et al. (2022).

Assay: yeast display, Sf9 membrane polyspecificity reagent, FACS + sequencing; frameworks hold sequencing errors
How it was run: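 A nanobody's polyreactivity label depends on the gate it was sorted from. Yeast display cells were stained with 10% biotinylated, detergent-solubilized Sf9 membrane reagent for 1 hour at 4 °C, enriched on streptavidin microbeads and sorted by FACS. The low and high (top ~1%) gates were set on anti-HA fluorescence for expression and streptavidin fluorescence for reagent binding.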

Sequence | polyreactivity (PSR sort gate)
QVQLVESGGGLVQAGGSLRLTCAACGRIFNKYAMVWYIQAPGKERELVAAINGGGSTNYADSVKGRFTISRDNAKNTDYLQMNSLKAEDTAVYYCSTTPDGEGGYWGQGTQVTVSS | low polyreactivity
QVQRVESGGGIVQAGVSLSLSCPASGRIFTSNAMGWYRQEPGKERELVAAIRWSDGSTYYADSVKGRFTISRDNAKNTVYLQMNSLKPEDTAVYYCAADTRTSYYNDDYVFWGQGTQVTVSS | low polyreactivity
QVQLVESGGGLVQAGGSLRLSCSASGFIFWYNAMGWYRQAPGKERELVAAISWSGGRTYYADSVKGRFTISRDNAKNTVYLQMNSLKPEDSAVYYCAAKVPRSSRSYGYWGQGTQVTVSS | high polyreactivity
QVQLVESGGGLVQAGGSLRLSCAASGFTSFANAMGWYRQAPGKERELVASITNSGGSTHYADSVKGRFTISRDNAKNTVYLQMNSLKPEDTAVYYCAADYWIVYRIYGSKYLGKWYDYWGQGTQVTVSS | low polyreactivity
QVQLVESGGGLVQAGGSLRLSCAASGRIFRGYAMGWYRQPPGTERELVAAITKRGGSTYYADSVKGRFTISRDNEKNTVSLQMNSLKPEDTAVYYCAAYLPGWELREYGYWGQGTQVTVSS | high polyreactivity
QVQLVESGGGLVHAGGSLRLSCAASGSTFYSYAMGGYRQAPGKERELVAAISRSGGRTYYADSVKGRFTISRDIAKNTVYLQMKSLKPEDTAVYYCNAVNSVTTSTRTRAKYAAYDSWGQGTQVTVSS | high polyreactivity
QVQLVESGGGLVQAGGSLRLSCAASGSIFSDYAMGWYRQAPGKERELVAAITQSGGSTYADSVKGRFTISRDNAKNTVYLQMNSLKPEDTAVYYCAADEVPGFGYPPYPWFDYWGQGTQVTVSS | low polyreactivity
QVQLVESGGGLVQAGGSLRLSCAASGRICGVYAMGWYRQAPGKERELVAAITARGGSTYYADSVKGRFTISRDNAKNTVYLQMNSLKPEVTAVYYCATRLYKRTRTITYGYWGQGTQVTVSS | high polyreactivity
QVHLVESGGGLVQAGGSLRLSCAASGFIFGYNARGWYRQAPAKERELVAAINWSGGRTYYADSVKGRFTISRDIAKNTVYLQMNSLKPEVTAVSYCNADGSRRYNYWGQGSQVTVSS | low polyreactivity
QVQLVESGGGLVQAGGSLRLRCAASGRTFYSHTMGWYRQAPGKERELVAAIDWSGGRTYYADSVKGRFTISRDNAKNTVYLQMNSLKPEDTAVDYCNTVGYTRRLRSGGYWGQGTQVTVSS | high polyreactivity
QVQLVESGGRLVQAGGSLRLSCAASGLIFAPYAMGWYRQAPGKEWELVAAISSSGTSTYYADSVKGRFTISRDNAKNTVYLQMNSLKPEDTAVYYCAAVYWTFWGTIATRYDYWGQGTQVTVSS | high polyreactivity
QVQLVESGGGLVQAGGSLRLSCAASGSIFNYNAMGWYREAPRKERELVAAITWRGGTTSYADSVKGRFSISRDNAKNTVYLQMNSLKPEDTAVYYCNAYQWRHRYTMYYWGQGTQVTVSS | high polyreactivity
QVQLVESGGGLVQAGGSLRLSCAASGFTFNGYAMGWYRQAPGHERELVAGITRRGGITYYADSVKGRFTISRDNAKNTVYLPMNSLKPEDTAVYYCARDYIGHALIHHASLYYYWGQGTQVTVSS | high polyreactivity
QVQLVESGRGLVQAGGSLRLSCAASGITFGWYAMGWYRQPPGKATELVASISSSGSTNYADSVKGRFTNSRDNAKNTVYLQMNSLKPEDTAVYYCNKDYLLRHYYIYVIEGDYWGQGTQVTVSS | low polyreactivity
QVQLVESGGGLVQAGGSLRLSCAASGRTFRGNAMGWYRQAPGKERELVAAISRGGSTKYADSVKGRFTISGDNAKNTVYLQMNSLKPEDTAVYYCAADNRKSRYDYWGQGTQVTVSS | high polyreactivity
QVQLVESGAGIVQAGGSLRLTCAASGSTFVIYDMGWSRQAPGKERELVAAISYSGGSTYYADSVKGRFTISRDNAKNTVYLQMNSLKPEDTAVYYCAAEVPYYYPGFYSYYDDSDYWGQGTQVTVSS | low polyreactivity
QVQHVESGGGLVQAGGSLRLSCAASGRIFHYYAMGWYRQAPGKERELVAAINKSGGRTYYADSVKGRFTISRDNAKNTVYLQMNSLKPEDTAVYYCNKRSVPGTYYPTPVRYKYDYWGQGTQVTVSS | high polyreactivity
QVQLVESGGGLVQAGGSLRLSCAASGIIYRQNAMGWYRQATRKEREFVAAISSGGNTYYADSVKGRFTISRDNAKNTVYLQMNSLKPEDTGFYYCAADVEDRYHRAWFDYWGQGTKVTVSS | low polyreactivity
QVQLVESGGGLVQAVGSLSLSCAASGLTLGSYAKGAYRQAPGKERELVAAISRRSGRTYYADSVKGLFTISRDNAKNTVYLQINSLKPEDTAGFYCNRGYTAQVYTEFDYWGQGTQVTVSS | low polyreactivity
QDQLVESAGGLVQAGGSLRLICAASASIFYWNAMGWYRQAPGKERELVAAITSGGSTYYADSVKGRFTISRDNAKNTVYLQMNSMKPEDTAVYYCAARPRGTYSRLGYWGQGTQVTVSS | high polyreactivity
QVQLVESGGGLVQAGGSLRLSCAASGSIFKKYAMVWYRQAPGKERELVAAITRGTYYADSVKGRFTISRDNAKNTVYLQMNSLKPEDTAVYFCNREYWGRGYYRVRGEYDYWGQGTQVTVSS | low polyreactivity
QVQLVESGGGLVQAGGSLRLSCAASGYTIRNYAMGWYRQAPGTERELVAAIRGSGGSTYYADSVKGRFTISRDNAKNTVYLQMNSLKPEDTAVDYCNADQLVWQRYGVLYEYDYWGQGTQVTVSS | high polyreactivity

Sequence | polyreactivity (PSR sort gate)
QFQLVESGGGLVQAGGSLRLSCAASGSIFSYYAMGWYRQAPGKERELVAGITWSGGRTYYADSVKGRFTISRDNAKNTVYLQMNSLKPEDTAVYYCAAAVKRALDYWGQGTQVTVSS | high polyreactivity
QVHLVDSAGGLVQAGGSLRLSCAASGNIFDYNGMGWYRQAPGKERELVAGINWSGGSTYYADSVKGRFTISRDNAKNTVYLQMNSLTPEDTAVYYCAAECVYDWYPFWRAIYTYDYWGQGTQVTVSS | low polyreactivity
QVHIVESGGGLVQAGGSLRLSCAASGFTFFSNAMGWYRQAPGKQRELVASISASGSGTYYAVSVKGRFTISRDNAKNTFYLQMNSLKPDDTAVYYCSTRVGKILTTKYGYWGQGTQVSVSS | high polyreactivity
QVQLVESGGGLVQAGGSLRLSCAASGSIFIVYAMGWYRQAPGKERELVATITSGGSTNYADSVKGRFTISRDNAKNTVYLQMNSLKPEDTAVYYCATQFPPSTIYDYWGQGTQVTVSS | low polyreactivity
QVQLVESGGGLVQEGGSLRLSCAASGRIFATYVMGWYRQAPGKERELVAAISRRGSSTYYADSVKGRFTISRDNAKNTVYLQMNSLKPEDTAVYYCAAVHKVGWSRHYDYWGLGTQVTVSS | high polyreactivity
QVQLVESVGGLVQAGGSLRLSCAASGSIFHYNALGWYRPAPGKERELVAAITSGGSTYADSVKGRFTISRDNAKNTVYLQMNSLKPEDTAVYYCNADSVGPRGDLGYWGQGTQVTVSS | low polyreactivity
QDHLVESAAGLVQAGGRLRLSCAASGSTLYDYAMVWSRKAPGKDRELVAAIRTGGSTYYADSVKGRFTISRDNAKNTVYLQMNSLKTEDTAVYYCAADHGYQYGYWGQGTQVTVSS | low polyreactivity
QVKLVDSGGGLVQAGGSLRISCGASGRTFYGYDMGWYRQAPGKERELVAAINWRGVRTYYADSVKGRFTISRDNAKNTDYLEMNCLKPEDTAVYYCGVYNHWVYGNDYWGQGTQVTVSS | high polyreactivity
QVQLVESGGGLVQAGGSLRLSCAPSGFIFYTNAMGWYRQAPGKDRELVAAITCIGVSTYYADSVKGRFTISRDYAKNTVYLKMNSLKPEDTEVYYCAADRNFLIFTPDNLTMDYWGQGTQVTVSS | low polyreactivity
QVQLVESGVGLVQAGGSLRLSCAASGRTFEPNAMGWYRHAPGKERELVAGITWSGGSTYYADSVKGRFTISRDNAKNTVYLQMNSLKPEDTAVYYCNAPITWKRSHYGYWGQGTQVTVSS | low polyreactivity
QVQLVESGGGLVQAGGSLRLSCAASDTPSSSMLMGWYRQAPGKERELVAAISGSDGTTYYADSVKGRFTISRDNAKNTVYLQMNSLKPEDTAVYYCAADDRVDSGYIKDDYWGQGTQVTVSS | low polyreactivity
QVQLEESGGGLVQAGGSLRLSCAASGRIFTGYAMGWYRQAPGKERELVAAIRGSGTSTYYADSVKGRFTISRDNAKNTVYLQMNSLKPEDTAVFYCAADWYTSRGWDWYDYWGQGTQVTVSS | high polyreactivity
QVQLVESGGGLVQAGGSLRLSCAASGFIFGLNAMGWYRPAPGKERELVAAIRSASSTNYADSVKGRFTISRDNAKNTVYLQMNSVKPEDTAVYYCAAEYVTYQQGFWGYDYWGQGTEVTVSS | low polyreactivity
QVLLQESGGGLVQAGGSLRLGCAASGTISPAYYMGRYHQAPGKEREFVAAITYGTNTYYADSVKGRFTISRDNAKNNVYLQMNSLKPEDTAVYYCSASAGYNGAHDYWGQGTQVTVSS | low polyreactivity
QVQLVESGGGLVQAGGSLRLICAASGIIFYGYGMGWYRQARGKERELVAAITRSGGRTYYADSVKGRFTISRDNAKNTVYLQMNSLKPEDTAVYYCAAKRRTGGNGYWGQGTQVTVSS | high polyreactivity
QVQLVESGGGLVQAGASLRLSCAASGIIFNVKAMGWYRQAPGKERELVAAITSGANTYYADSVKGRFTISRDNAKNTVYLQMNSLKPEDSAVYYCNKVGSNSVGPGYDYWGHGTQVTVSS | high polyreactivity
QVQLVESGGGLVQAGGSLRLSCAASGIILYVYGMGWYRQAPGKERELVATITWSDGGTYYADSVKGRFTISRDNAKNTVYLQMNSLKPEDTAVYYCNVVVVNGWVTTPGYDYWGQGTQVTVSS | low polyreactivity
QVQLVESGGGLVQAGGSLRLSCAASGRIFGHNAMGWYRQAPGKERELVARISSTGSTKYADSVKGRFTISRDNAKNTVYLQMNSLKPEDTAVYYCAAYIIRWKGSSYYWGQGTQVTVSS | high polyreactivity
QVQLVESGAGLVQAGGSLRLSCAASGSTLVGNTMGWYRQSPGKERELVAAITGVGSTNYADSVKGRFTISRDNAKNTVYLQMNSLKPEDTAVYYCAVDGRSVQARWPRFDYWGQGTQVTVSS | low polyreactivity
QVQLVESGGGLVHAGGSLRLSCAASGGTFTYYTMGWYRKAPGKERELVARISKNGGRTYYADSVKGRFTLSRDNAKNTLYLKMISLKPEDTAVYYCNAAGRPYDFSGGRTMEYWGQGTQVTVST | high polyreactivity
QVQLVESGGGLVQAGGSLRLSCAASGSIFGLNGMGWYIQAPGKERELVASISASGGSTYYADSVKGRFTISRDNAKNTVYLQMNSLKPEDTAVYYCAARVVYGAGLSSSGPKQYTRRFYYWGQGTQVTVSS | high polyreactivity
